Experimental data reported in paper PMC8605023.
pIC50, pKd, pKi: −log10 of the molar value.

What was measured:
[1] = biological target: ATG9A FITC-…
[2] = biological target: FITC-SQSTM1 peptide 335-344 (human)
[3] = biological target: SQSTM1 FITC-…
USP7 (human) = USP7 (human) (UniProt Q93009)
AP2M1 (human) = AP2M1 (human) (UniProt Q96CW1)
[4] = biological target: G3BP2 NTF2 domain (human) (UniProt Q9UN86)
[5] = biological target: G3BP1 NTF2 domain (human) (UniProt Q13283)
[6] = biological target: MAP1LC3C ATG8 domain (human) (UniProt Q9BXW4)
MAP1LC3C ATG8 domain (human), sequence (Q9BXW4 1-126): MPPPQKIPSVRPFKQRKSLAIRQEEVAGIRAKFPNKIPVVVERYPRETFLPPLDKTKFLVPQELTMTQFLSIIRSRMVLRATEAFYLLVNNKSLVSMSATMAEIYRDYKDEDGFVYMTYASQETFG

USP7 MATH = assay: FP
[7] = biological target: ATG8 domain of MAP1LC3C (human) (UniProt Q9BXW4); assay: FP
ATG8 domain of MAP1LC3C (human), sequence (Q9BXW4 whole entry, the tested form may be a part): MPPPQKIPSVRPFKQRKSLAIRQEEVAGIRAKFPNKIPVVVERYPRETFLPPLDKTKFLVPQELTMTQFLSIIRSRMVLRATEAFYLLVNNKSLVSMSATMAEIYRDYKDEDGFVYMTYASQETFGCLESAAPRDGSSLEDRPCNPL

[8] = biological target: FITC-MDM2 peptide (human)

G3BP2 NTF2 domain (human), sequence (Q9UN86 11-133): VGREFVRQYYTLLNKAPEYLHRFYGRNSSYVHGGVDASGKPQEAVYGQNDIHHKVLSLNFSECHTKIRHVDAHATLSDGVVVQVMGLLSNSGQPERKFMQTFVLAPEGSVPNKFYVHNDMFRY
USP7 (human), sequence (Q93009 whole entry): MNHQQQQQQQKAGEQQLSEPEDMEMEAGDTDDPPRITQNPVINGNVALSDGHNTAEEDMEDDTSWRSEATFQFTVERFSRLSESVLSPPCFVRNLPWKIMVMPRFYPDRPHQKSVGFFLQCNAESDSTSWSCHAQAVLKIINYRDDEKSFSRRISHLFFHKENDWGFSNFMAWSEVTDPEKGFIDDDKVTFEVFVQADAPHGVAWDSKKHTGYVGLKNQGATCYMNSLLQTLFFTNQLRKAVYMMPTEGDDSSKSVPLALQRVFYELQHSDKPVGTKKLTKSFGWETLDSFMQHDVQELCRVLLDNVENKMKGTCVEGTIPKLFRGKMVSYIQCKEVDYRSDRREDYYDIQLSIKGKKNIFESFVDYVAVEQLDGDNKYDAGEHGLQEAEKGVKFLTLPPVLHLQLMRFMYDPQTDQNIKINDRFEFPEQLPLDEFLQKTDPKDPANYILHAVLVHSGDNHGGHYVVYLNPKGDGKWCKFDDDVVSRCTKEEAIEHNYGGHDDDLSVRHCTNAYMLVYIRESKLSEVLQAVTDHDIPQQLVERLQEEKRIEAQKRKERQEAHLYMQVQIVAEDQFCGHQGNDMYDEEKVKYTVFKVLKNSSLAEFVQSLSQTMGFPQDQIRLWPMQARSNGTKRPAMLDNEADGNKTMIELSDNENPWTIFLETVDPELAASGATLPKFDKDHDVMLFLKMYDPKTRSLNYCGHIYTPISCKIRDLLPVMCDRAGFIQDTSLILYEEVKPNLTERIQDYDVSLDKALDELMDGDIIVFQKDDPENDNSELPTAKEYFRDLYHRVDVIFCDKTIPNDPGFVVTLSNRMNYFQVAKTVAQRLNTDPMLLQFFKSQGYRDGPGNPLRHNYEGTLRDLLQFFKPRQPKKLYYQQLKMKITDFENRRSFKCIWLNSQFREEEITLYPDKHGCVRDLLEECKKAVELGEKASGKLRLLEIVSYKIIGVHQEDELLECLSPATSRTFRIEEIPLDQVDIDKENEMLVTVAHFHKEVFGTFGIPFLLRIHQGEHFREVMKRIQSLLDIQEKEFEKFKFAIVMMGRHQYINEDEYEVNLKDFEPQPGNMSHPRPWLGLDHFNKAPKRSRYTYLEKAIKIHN
AP2M1 (human), sequence (Q96CW1 whole entry, the tested form may be a part): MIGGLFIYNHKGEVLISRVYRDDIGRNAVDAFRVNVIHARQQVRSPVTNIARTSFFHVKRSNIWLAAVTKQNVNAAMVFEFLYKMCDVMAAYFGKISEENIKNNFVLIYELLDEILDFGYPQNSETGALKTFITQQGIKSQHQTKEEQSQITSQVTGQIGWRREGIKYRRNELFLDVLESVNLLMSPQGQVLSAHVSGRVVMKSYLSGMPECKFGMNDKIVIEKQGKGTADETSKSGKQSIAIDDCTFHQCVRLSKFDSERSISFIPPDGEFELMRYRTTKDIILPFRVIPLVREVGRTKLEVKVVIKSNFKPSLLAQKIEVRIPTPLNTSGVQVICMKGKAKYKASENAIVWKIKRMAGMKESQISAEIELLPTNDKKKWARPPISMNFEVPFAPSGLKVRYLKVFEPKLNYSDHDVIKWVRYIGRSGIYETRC
G3BP1 NTF2 domain (human), sequence (Q13283 11-133): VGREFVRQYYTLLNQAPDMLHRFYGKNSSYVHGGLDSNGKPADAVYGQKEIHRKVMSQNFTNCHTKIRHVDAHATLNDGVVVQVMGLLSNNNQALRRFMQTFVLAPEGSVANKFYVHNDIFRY

## AP2M1 (from UniProt Q96CW1 1-435) (domain or fragment)
[1]
  pKd: 5.96

## MAP1LC3C ATG8 domain (from UniProt Q9BXW4 1-126) (domain or fragment)
[2]
  pKd: 5.96
[3]
  pKd: 5.96

## N peptide 206-220 (Sars-CoV)
USP7 (human)
  pIC50: 2.82
  pKi: 3.66

## N peptide 353-367 (Sars-CoV2/Sars-CoV)
AP2M1 (human)
  pIC50: 2.81
  pKi: 3.28

## N peptide 406-422 (Sars-CoV)
USP7 (human)
  pIC50: 3.16
  pKi: 4.02

## NSP1 peptide 161-177 (Sars-CoV)
USP7 (human)
  pIC50: 2.70
  pKi: 3.55

## NSP3 peptide 1785-1796 (SFV, Semliki-Forest-Virus)
[4]
  pIC50: 4.89
[5]
  pIC50: 4.64

## NSP3 peptide 1785-1809 (SFV, Semliki-Forest-Virus)
[4]
  pIC50: 8.72
  pKi: 6.82
[5]
  pIC50: 8.36

## NSP3 peptide 1796-1809 (SFV, Semliki-Forest-Virus)
[4]
  pIC50: 4.96

## NSP3 peptide 1996-2011 (Sars-CoV)
[6]
  pIC50: 3.70
  pKi: 4.55
USP7 (human)
  pIC50: 3.68
  pKi: 4.54

## NSP4 peptide 3248-3263 (Sars-CoV2/Sars-CoV)
USP7 (human)
  pIC50: 3.32
  pKi: 4.17

## NSP14 peptide 6498-6512 (Mers)
AP2M1 (human)
  pKi: 5.52

## SARS-CoV N 205-219
USP7 MATH
  pKd: 3.66

## SARS-CoV N 405-419
USP7 MATH
  pKd: 4.02

## SARS-CoV NSP1 161-176
USP7 MATH
  pKd: 3.55

## SARS-CoV NSP3 2019-2034
USP7 MATH
  pKd: 4.54

## SARS-CoV NSP3 2019-2038
[7]
  pKd: 4.55

## SARS-CoV NSP4 3248-3263
USP7 MATH
  pKd: 4.17

## SARS-CoV-2 N 405-419
USP7 MATH
  pKd: 3.82

## SARS-CoV-2 NSP3 2019-2034
USP7 MATH
  pKd: 4.43

## SARS-CoV-2 NSP3 2019-2038
[7]
  pKd: 3.68

## SARS-CoV-2 NSP4 3248-3263
USP7 MATH
  pKd: 4.17

## USP7 (from UniProt Q93009 1-1102) (domain or fragment)
[8]
  pKd: 6.31
